These results are taken from US20240075139A1.

The labels stand for the following.
B1: 4T0243 (antibody, V domains shown)
VH: QVQLQESGPGLVKPSETLSLTCTVSGGSLSTYYWNWIRQPPGKGLEWIGYIYYSSLPKYSPTLKSRITISVDTSKNQFSLKLSSVTAADTAVYYCARAPRGYSSGKYNYYGLDVWSQGTTVTVSS
VL: SYELTQPPSVSVSPGHTATITCSGDALSKQFAYWYQQKPGQAPVLVISKDTERPSGIPGRFSGSSSGPTATLTISGVQAEDEADYYCQSADSSGGYYVFGSGTRVTVL
B2: 3T0253 (antibody)
heavy: EVQLVESGGGLVKPGRSLRISCAASGITFNKAWMNWVRLAPGKGLEWVGRIKSNGDGGKRDYAAPVTGRFTISRDDSKNTLYLQMNSLKTEDTAVYFRTTRHHRGMDVWGQGTTVTVSS
light: QSVLTQPPSVSGAPGQRVTISCTGSSSNIGAGYDVHWYQHLPGAAPKLLIYGDGSRPSGVPDRFSASKSGTSASLAITGLQAEDEADYYCQSYDSSLSDAVVFGGGTKLTVL
B3: 1T0455 (antibody, V domains shown)
VH: EVQLVESGGGLVKPGESLRLSCAVSGLTFSNAWMNWVRQAPGKGLEWVGRIKSKSDGGAADYAAPVNARFTISRDDSKKTLYLQMNSLKTEDTGFYYCTTLYHSGQGTLVTVSS
VL: QSVLTQPPSVSGAPGQRVTISCTGSSSNIGAGYDVHWYQQLPGTAPKFVIYGNNNRPSGVPDRFSGSKSGTSASLAITGLQVEDEGDYYCQSYDSRLSDHVVFGGGTKLTVL
B4: 4T0764 (antibody, V domains shown)
VH: QVQLQESGPGLVEPSETLSLTCTVSGASISSLFWSWIRQPPGKGLEWIGYIHSDGSTNYNPFLKSRVTISIDTSQNQFSLRLTSVTAADTAVYFCARGLLGSQDSWGQGTLVTVSS
VL: QSALTQPASVSGSPGQSITISCTGTSSDVGGYNYVSWYQQYPGKAPKLVIYEVTNRPSGVSNRFSGSKSGNTASLTISGLRAEDEADYHCSSYRTRNTHVIFGGGTKLTVL
B5: 3T0553 (antibody, V domains shown)
VH: QVQLVESGGGVVQPGRSLRLSCAASGFTFTTCAMHWVRQAPGKGLEWVSVMWYDGSREYYADSVKGRFTISRDNSKNTLYLEMQSLRAEDTAVYYCARGGDLLVEVDSTDYYGLDVWGQGTTVTVSS
VL: DIQMTQSPSAMSASVGDRVTITCRASQGISHSLAWFQQKPGKVPKRLIYSASTLQSGVPSRFSGSGSGTEFTLTISSLQPEDFATYYCLQHNRYPWTFGQGTKVEIK
B6: 4T0444 (antibody, V domains shown)
VH: EVQLVVSGGGLVQPGGSLRLSCAASGFTLKSYDIHWVRQRPGEGLEWVAAIGAAGDTYFSGSVKGRFTISRENARNSLYLQMNSLGAGDTAIYYCARARFGDLALDYWGQGILVTVSS
VL: EIVLTQSPGTLSLSPGERATLSCRSSQSVSSNSLAWYQQKPGQAPRLLIYGASSRAAGIPDRFSGSGSGTDFTLTISRLQPEDFAVFFCHQYSSSPLTFGGGTKVEIK
B7: 3T0331 (antibody, V domains shown)
VH: EVQLLESGGGLVQPGGSLRLSCEASGFPLRDYAMSWVRQAPGRGLQWVSTIGGNDNAANYADSVKGRFTVSRDNSKSTIYLQMNSLRAEDTALYFCAKSVRLSRPSPFDLWGQGSLVTVSS
VL: EIVLTQSPATLSLSPGERATLSCRASQSVSTYLAWYQHQPGQAPRLLIYEASNRATGIPARFSGSGSGTEFTLTISSLEPEDVAVYYCQQRASWPLTFGGGTKVEIK
B8: 3T0673 (antibody, V domains shown)
VH: EVQLVESGGGRVKPGGSLRVSCAVSGITFTNAWMTWVRQAPGKGLEWLGRIKSRSDGGQSDLIAPVKGRFTISRDDSKNILYLQMNNLKTEDTGLYFCTTYYYDNGGSYSNPWGLGTLVTVSS
VL: QSVLTQPPSVSGAPGQRVTISCTGSYSNIGAGYDVLWYQQLPGTAPKLLIYGNNKRPSGVPDRFSGSKSGTSASLAITGLQAEDEADYYCQSYDSRLRDFGIFGGGTKLTVL
B9: 3T0338 (antibody, V domains shown)
VH: EVQLVESGGALVKPGGSLRLSCAASGFSFKTAWMNWVRQAPGKGLEWVGRIKSRADGGTSDYSASVKGRFTFSRDDSKNTLYLQMTSLKTEDTGMYYCTTLNLGGGFPGEWRSVWGQGTTVTVSS
VL: QSVLTQPPSVSGAPGQRVTISCTGSYSNIGSGYDVLWYQQLPGAAPKLLIYGNNNRPSGVPDRFSGSKSGTSASLAITELQAEDEGDYYCQSYDSRLRDSWVFGGGTRLTVL
B10: 5T0209 (antibody, V domains shown)
VH: EVQLVDSGGGLVKPGGSLRLSCAASGFTFSKAWMSWVRQAPGKGLEWVGRIKSRTDGGTTDYAAPVRGRFTISRDDSKNTLFLQMNSLKPEDTAIYYCATDYYESRGYWGQGTLVTVSS
VL: QSVLTQPPSVSGAPGQRVTISCTGSSSNIGAGYDVNWYQQIPGTAPKLLIYGNNKRPSGVPDRFSGSKSGTSVSLAITGLQAEDEADYYCQSYDSRLSDHWVFGGGTKLTVL
B11: 5T0451 (antibody, V domains shown)
VH: EVQLVESGGGLVKPGGSLRLSCAASGFTFTNAWMNWVRQAPGKGLEWIGRIKSKGDGGTADHAAPVRGRFIISRDDSKQMLYLQMTGLKSDDTAVYYCTRGPYDNFSGWRDYWGQGTLVTVSS
VL: QSVLTQPPSVSGAPGQRVTISCTGSGSNIGAGYDVQWYQQHPGTAPKVLIYGNNKRPSGVPDRFSGSKSGTSASLAITGLQAEDEAHYYCQSYDARLRDSWVFGGGTQLTVL
B12: 4T0452 (antibody, V domains shown)
VH: EVQLVESGGGLVKPGGSLRISCAASGFSFSNAWMNWVRQAPGKGLEWVGRIKSVSDGGPIHYAAPVKGRFTISRDDSKKMLYLQMNSLKVDDTAVYYCATEPRGYDWGWGQGTLVTVSS
VL: QSVLTQPPSVSGAPGQRVTISCTGSYSNIGAGYDVYWYQQFPGTAPKLLIYGNTNRPSGVPDRFSGSRSGTSASLAITGLQAEDEAHYYCQSYDSRLRDNWVLGGGTKLTVL
B13: 5T0278 (antibody, V domains shown)
VH: EVQLVESGGGLVKPGGSLRVSCAASGFPFTDAWMSWVRQAPGKGLEWVGRIKSNSDGGIPDYAAPVKGRFTISRDDSKRTLYLQMNSLKTEDTGYYYCYTLRFFGPGNSWGQGTLVTVSS
VL: QSVLTQPPSVSGAPGQRITISCTGSYSNIGAGYDVSWHQQLPGKAPKLLIYGNNNRPSGVPDRFSGSKSGTSASLTITGLQAEDEADYYCQSYDARLRDQVVFGGGTKLTVL
B14: 3T0611 (antibody, V domains shown)
VH: EVQLVESGGNLVQPGGSLRLSCAASGFTFRSYSMNWVRQAPGKGLEWVSYISSSASIIHYAESVQGRFTISRDNAKNSLFLQMNSLRAEDTAVYYCAGILDDYRDYGYDYWGQGTLVTVSS
VL: SYELTQPPSVSVSPGQTARITCSGDALPKQYAYWYQQRPGQAPVLVIYKDIERPSGIPERYSGSSSGAIVTLTISGAQAEDEADYYCQSSDNNGSYRVMFGGGTKLTVL
B15: 1T0227 (antibody, V domains shown)
VH: EVQLVESGGGLVKPGGSLRLSCAASGFTFRNAWMNWVRQAPGKGLEWVGRIKSRADGGPTDYAAPVKGRFTISRDDSKNTLYLQMNSLKSEDTAVYYCTTHVPDYNSAYYWVYWGQGTLVTVSS
VL: QSVLTQPPSVSGAPGQRVTISCTGSSSNIGAGYDVYWYQQLPGTAPKLIIYGNNNRPSGVPDRFSASKSGPSASLAITGLQAEDEADYYCQSYDIRLSDNYVFGTGTKVTVL
B16: 3T0478 (antibody, V domains shown)
VH: VQLLQESGPGLVKPSETLSLTCTVSGGSISSYYWNWIRQSPGKGLEWMGYIYYTGSTNYNPSLKSRVTISVDLSKNQFSLKLRSVTAADTAVYYCARDKRYYDSSGYSHFDYWGQGILVTVSS
VL: QSVLTQPPSASGTPGQRVTIFCSGSSFNIGSNYVYWYQQLPGTAPKLLIYRNNERPSGVPDRFSGSKSGTSASLDISGLRSEDEADYSCAAWDGSLSGPVFGGGTKLTVL
B17: 3T0650 (antibody, V domains shown)
VH: EVQLVQSGGGLVKPGGSLRLSCAASGFTFSNAWMNWVRQAPGKGLEWIGRVKSQTDRGTKDYAAPVKGRFSISRDDSKKMLYLQMNSLKIEDTGVYYCVATPHSWSVAWGQGTLVTVSS
VL: QSVLTQPPSVSGAPGQRVTISCTGSSSNIGAGYDVQWYQQFPGTAPKLLIYGNINRPSGVPDRFSGSKSGSSASLAITRLQAEDEADYYCQSYDSSLRDQWVFGGGTKLTVL
B18: 5T0465 (antibody, V domains shown)
VH: QVQLVQSGAEVREPGASVRISCKASGYTFTSASIHWVRQAPGQGLEWMGIIDPVVGKTRSERKFNGRLIMTRDTPTSTVYMELNSLRSDDTAMYYCARSGYYPRGMDVWGQGTTVTVSS
VL: SYELTQPPSVSVSPGQTASITCSGDKLGDEYVSWYQQKPGQSPVLVISRDTRRSSGIPERFSGSNSGNTATLTISGTQAMDEADYYCQAWDSSTAVVFGGGTKLTVL
B19: 3T0245 (antibody, V domains shown)
VH: EVQLVESGGDLVKPGGSLRLSCEASGFTFTNAWMNWVRQSPGKGLEWIGRVKSKSDGGAADYAAPVKGRFTISRDDSKNSVFLQMRSLKPEDTGVYYCATRVHYNGMDVWGRGTTVTVSS
VL: QSVLTQPPSVSGAPGQRVTISCAGSGSNIGAGYDVHWYQQLPGTAPKLLIYANHNRPSGVPDRFSGSKSGSSASLAITGLQAEDEADYYCQSYDSSLRDACVFGGGTKLTV
B20: 3T0202 (antibody, V domains shown)
VH: EVQLVESGGGLVQPGGSLRLSCAASGFKFRSYDMHWVRQRSGEGLEWVAAIGTAADTYYLGSVRGRFTISRENAKNSLYLQMDSLGAGDTAVYYCARAAFGAVFFDYWGQGTLVTVSS
VL: EIVLTQSPGTLSLSSGERATLSCRASQSISSSYLVWYQQKLGQAPRLLIYGASRRATGIPDRFSGSGSGTDFTLTISRLEPEDFAVYYCQQYGNSPITFGQGTRLEIK

This experiment has as its target EBOV Mayinga (GenBank: NC_002549) (Zaire Ebolavirus (EBOV Mayinga)) (UniProt Q05320). The experiment is described as follows: cell-based or functional assay.
Sequence of UniProt Q05320 (Q05320 33-676 limits assumed): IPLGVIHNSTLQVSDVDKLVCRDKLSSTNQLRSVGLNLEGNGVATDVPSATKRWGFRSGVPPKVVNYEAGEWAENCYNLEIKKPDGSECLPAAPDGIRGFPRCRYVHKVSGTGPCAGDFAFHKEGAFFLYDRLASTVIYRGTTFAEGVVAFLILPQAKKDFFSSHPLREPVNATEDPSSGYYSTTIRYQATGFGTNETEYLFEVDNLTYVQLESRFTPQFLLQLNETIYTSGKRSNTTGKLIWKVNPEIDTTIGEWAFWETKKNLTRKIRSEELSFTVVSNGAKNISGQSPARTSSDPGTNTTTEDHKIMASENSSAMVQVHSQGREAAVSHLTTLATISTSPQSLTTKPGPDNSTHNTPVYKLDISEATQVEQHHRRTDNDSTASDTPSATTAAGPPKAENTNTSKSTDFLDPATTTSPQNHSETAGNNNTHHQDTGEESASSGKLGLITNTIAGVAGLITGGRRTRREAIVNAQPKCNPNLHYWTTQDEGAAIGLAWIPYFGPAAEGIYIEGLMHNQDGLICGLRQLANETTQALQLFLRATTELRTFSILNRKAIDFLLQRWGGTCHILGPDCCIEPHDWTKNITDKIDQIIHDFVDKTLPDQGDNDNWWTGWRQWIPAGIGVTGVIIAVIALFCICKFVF
As to B1, the neutralization concentration (GMC, CPE reduction on Vero C1008 cells) worked out at 0.011 µg/mL.

B2 had a neutralization concentration (GMC, CPE reduction on Vero C1008 cells) of 1.31 µg/mL.

Molecule B3 registered a neutralization concentration (GMC, CPE reduction on Vero C1008 cells) of 1.77 µg/mL.

The molecule B4 returned a neutralization concentration (GMC, CPE reduction on Vero C1008 cells) of 0.88 µg/mL.

For the molecule B5, the neutralization concentration (GMC, CPE reduction on Vero C1008 cells) came out at 1.31 µg/mL.

The molecule B6 registered a neutralization concentration (GMC, CPE reduction on Vero C1008 cells) of 1.2 µg/mL.

As to B7, the neutralization concentration (GMC, CPE reduction on Vero C1008 cells) turned out to be 0.011 µg/mL.

The molecule B8 came in with a neutralization concentration (GMC, CPE reduction on Vero C1008 cells) of 0.53 µg/mL.

The molecule B9 showed a neutralization concentration (GMC, CPE reduction on Vero C1008 cells) of 1.06 µg/mL.

For B10, the neutralization concentration (GMC, CPE reduction on Vero C1008 cells) was 1.77 µg/mL.

Turning to B11, the neutralization concentration (GMC, CPE reduction on Vero C1008 cells) was determined as 1.05 µg/mL.

In the case of B12, the neutralization concentration (GMC, CPE reduction on Vero C1008 cells) came out at 0.88 µg/mL.

B13 yielded a neutralization concentration (GMC, CPE reduction on Vero C1008 cells) of 0.63 µg/mL.

For B14, the neutralization concentration (GMC, CPE reduction on Vero C1008 cells) was 0.78 µg/mL.

For B15, the neutralization concentration (GMC, CPE reduction on Vero C1008 cells) worked out at 1.86 µg/mL.

The molecule B16 displayed a neutralization concentration (GMC, CPE reduction on Vero C1008 cells) of 0.78 µg/mL.

For B17, the neutralization concentration (GMC, CPE reduction on Vero C1008 cells) was determined as 0.74 µg/mL.

Molecule B18 gave a neutralization concentration (GMC, CPE reduction on Vero C1008 cells) of 0.66 µg/mL.

Regarding B19, the neutralization concentration (GMC, CPE reduction on Vero C1008 cells) was 0.63 µg/mL.

The molecule B20 had a neutralization concentration (GMC, CPE reduction on Vero C1008 cells) of 0.53 µg/mL.
